From US20240197902A1 (published 2024)
Like-named read-outs stand apart in the source and are kept apart here.

Tests used:
[1] = biological target: K74A; assay: SPR; 37 C
[2] = biological target: K55A; assay: SPR; 37 C
[3] = biological target: K55A/F82I; assay: SPR; 37 C
[4] = biological target: K55E; assay: SPR; 37 C
[5] = biological target: F82K; assay: SPR; 37 C
[6] = biological target: L79K/F82K; assay: SPR; 37 C
[7] = biological target: F82I; assay: SPR; 37 C
[8] = biological target: ActRIIB-G1Fc; assay: SPR; 37 C
[9] = biological target: L79K; assay: SPR; 37 C
[10] = biological target: ActRIIB F82T; assay: SPR; 37 C
[11] = biological target: ActRIIB V99G; assay: SPR; 37 C
[12] = biological target: ActRIIB E50L; assay: SPR; 37 C
[13] = biological target: ActRIIB-G1Fc; assay: SPR; 37 C; remark: listed apart in the source
[14] = biological target: ActRIIB L38N/L79R; assay: SPR; 37 C
[15] = biological target: N35E; assay: SPR; 25 C
[16] = biological target: Q98R; assay: SPR; 25 C
[17] = biological target: Q98I; assay: SPR; 25 C
[18] = biological target: Q98L; assay: SPR; 25 C
[19] = biological target: L38Q; assay: SPR; 25 C
[20] = biological target: Q98K; assay: SPR; 25 C
[21] = biological target: Q98A; assay: SPR; 25 C
[22] = biological target: L79W; assay: SPR; 25 C
[23] = biological target: N35F; assay: SPR; 25 C
[24] = biological target: F82T; assay: SPR; 25 C
[25] = biological target: L38D; assay: SPR; 25 C
[26] = biological target: N35Q; assay: SPR; 25 C
[27] = biological target: Q98V; assay: SPR; 25 C
[28] = biological target: L38R; assay: SPR; 25 C
[29] = biological target: ActRIIB-G1Fc; assay: SPR; 25 C
[30] = biological target: ActRIIB F82T; assay: SPR; 37 C; remark: listed apart in the source
[31] = biological target: ActRIIB V99G; assay: SPR; 37 C; remark: listed apart in the source
[32] = biological target: ActRIIB E50L; assay: SPR; 37 C; remark: listed apart in the source
[33] = biological target: ActRIIB-G1Fc; assay: SPR; 37 C; remark: listed apart in the source
[34] = biological target: ActRIIB L38N/L79R; assay: SPR; 37 C; remark: listed apart in the source
[35] = biological target: ActRIIB F82T; assay: SPR; 37 C; transient

| Binder | Kd [1] | Kd [2] | Kd [3] | Kd [4] | Kd [5] | Kd [6] | Kd [7] | Kd [8] | Kd [9] | Kd [16] | Kd [17] | Kd [18] | Kd [19] | Kd [20] | Kd [21] | Kd [22] | Kd [25] | Kd [27] | Kd [28] | Kd [29] | also measured |
| --- | --- | --- | --- | --- | --- | --- | --- | --- | --- | --- | --- | --- | --- | --- | --- | --- | --- | --- | --- | --- | --- |
| GDF11 (ligand) NLGLDCDEHSSESRCCRYPLTVDFEAFGWDWIIAPKRYKANYCSGQCEYMFMQKYPHTHLVQQANPRGSAGPCCTPTKMSPINMLYFNDKQQIIYGKIPGMVVDRCGCS | 0.43 nM | 0.026 nM | 0.09 nM | 0.052 nM | 0.057 nM | 1.6 nM | 0.01 nM | 0.012 nM | 0.14 nM | 0.02 nM | 0.049 nM | 0.043 nM | 0.021 nM | 0.037 nM | 0.037 nM | 0.044 nM | 0.03 nM | 0.033 nM | 0.007 nM | 0.011 nM | Kd [10]: 0.0267 nM; Kd [11]: 0.184 nM; Kd [12]: 0.187 nM; Kd [13]: 0.01 nM; Kd [14]: 0.0886 nM; Kd [15]: 0.028 nM; Kd [23]: 0.017 nM; Kd [24]: 0.018 nM; Kd [26]: 0.02 nM |
| Activin B (ligand) GLECDGRTNLCCRQQFFIDFRLIGWNDWIIAPTGYYGNYCEGSCPAYLAGVPGSASSFHTAVVNQYRMRGLNPGTVNSCCIPTKLSTMSMLYFDDEYNIVKRDVPNMIVEECGCA |  |  |  |  |  |  |  |  |  |  |  |  |  |  |  |  |  |  |  |  | Kd [30]: 0.012 nM; Kd [31]: 0.847 nM; Kd [32]: 0.159 nM; Kd [33]: 0.0085 nM; Kd [34]: 0.0369 nM |
| BMP9 (ligand) SAGAGSHCQKTSLRVNFEDIGWDSWIIAPKEYEAYECKGGCFFPLADDVTPTKHAIVQTLVHLKFPTKVGKACCVPTKLSPISVLYKDDMGVPTLKYHYEGMSVAECGCR | 0.36 nM | 0.142 nM | 0.134 nM | 0.27 nM |  |  | 0.275 nM | 0.037 nM | 1.1 nM | 0.074 nM | 0.059 nM | 0.071 nM | 0.033 nM | 0.069 nM | 0.043 nM | 0.11 nM | 0.063 nM | 0.047 nM | 0.05 nM | 0.059 nM | Kd [35]: 6.17 nM; Kd [12]: 0.103 nM; Kd [13]: 0.0911 nM; Kd [14]: 2.13 nM; Kd [24]: 0.082 nM |
| Activin A (ligand) GLECDGKVNICCKKQFFVSFKDIGWNDWIIAPSGYHANYCEGECPSHIAGTSGSSLSFHSTVINHYRMRGHSPFANLKSCCVPTKLRPMSMLYYDDGQNIIKKDIQNMIVEECGCS | 0.034 nM | 0.046 nM | 0.047 nM | 0.064 nM | 0.093 nM | 0.64 nM | 0.078 nM | 0.047 nM | 0.13 nM | 0.3 nM | 0.157 nM | 0.22 nM | 0.2 nM | 0.145 nM | 0.155 nM | 0.26 nM | 0.23 nM | 0.16 nM | 0.23 nM | 0.25 nM | Kd [15]: 0.8 nM; Kd [23]: 0.29 nM; Kd [26]: 0.32 nM; Kd [30]: 0.0109 nM; Kd [32]: 0.0456 nM; Kd [33]: 0.0146 nM; Kd [34]: 0.339 nM |
| BMP10 (ligand) NAKGNYCKRTPLYIDFKEIGWDSWIIAPPGYEAYECRGVCNYPLAEHLTPTKHAIIQALVHLKNSQKASKACCVPTKLEPISILYLDKGVVTYKFKYEGMAVSECGCR | 0.033 nM | 0.023 nM | 0.007 nM | 0.014 nM | 0.008 nM | 0.068 nM | 0.008 nM |  | 1.4 nM | 0.32 nM | 0.21 nM | 0.065 nM | 0.089 nM | 0.068 nM | 0.21 nM | 0.16 nM | 0.15 nM | 0.048 nM | 0.11 nM | 0.169 nM | Kd [10]: 0.0092 nM; Kd [11]: 0.951 nM; Kd [12]: 0.163 nM; Kd [13]: 0.0409 nM; Kd [14]: 0.293 nM; Kd [15]: 0.28 nM; Kd [23]: 0.22 nM; Kd [24]: 0.14 nM; Kd [26]: 0.27 nM |
